Assay results: US20220204580A1 (AstraZeneca / MedImmune, published 2022)
Blank lines part the entries; values can stand above or below the binder they belong to. Numbered stars: 1 amine (or outer) side, 2 acyl side, 3 side chain; on linkers, the order of the positions; unused ones are H or OH. Bridge positions count the residues as written; N and C are the ends. Square brackets hold non-standard residues; d marks the D form. Side chains are listed from the residue outwards. Ends that are not written are not given here. * marks the point of attachment. C18 diacid = O=C(O)CCCCCCCCCCCCCCCCC(=O)*; γGlu = O=C(O)[C@H](CCC(=O)[*:2])N[*:1]; Aib = CC(C)(N)C(=O)O

Assays:
[1] = target: T1, human amylin receptor (calcitonin receptor co-expressed with receptor activity modifying protein, RAMP3) (human, UniProt P30988 25-474; O60896 24-148); test: cell-based or functional assay
T1 sequence (looked up) 1: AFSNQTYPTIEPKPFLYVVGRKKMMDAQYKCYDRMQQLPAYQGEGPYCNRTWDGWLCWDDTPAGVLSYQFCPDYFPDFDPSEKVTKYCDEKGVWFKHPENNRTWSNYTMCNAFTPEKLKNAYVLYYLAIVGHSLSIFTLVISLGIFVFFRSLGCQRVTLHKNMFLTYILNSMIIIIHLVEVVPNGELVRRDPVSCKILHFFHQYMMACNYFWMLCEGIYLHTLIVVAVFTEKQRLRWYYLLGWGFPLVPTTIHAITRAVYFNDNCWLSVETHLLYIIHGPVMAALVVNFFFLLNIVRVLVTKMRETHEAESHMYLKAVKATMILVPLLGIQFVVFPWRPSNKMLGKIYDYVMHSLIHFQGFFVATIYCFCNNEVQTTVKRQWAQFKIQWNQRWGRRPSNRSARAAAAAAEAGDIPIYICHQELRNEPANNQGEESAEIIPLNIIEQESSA
T1 sequence (looked up) 2: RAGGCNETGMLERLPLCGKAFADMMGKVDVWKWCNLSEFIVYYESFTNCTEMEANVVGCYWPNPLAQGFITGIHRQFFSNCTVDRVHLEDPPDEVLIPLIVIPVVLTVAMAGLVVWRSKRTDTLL

[2] = target: T2, human calcitonin receptor (human, UniProt P30988 25-474); test: cell-based or functional assay
T2 sequence (looked up): T1 sequence (looked up) 1

B1: Peptide 86 (SEQ ID NO: 86) (peptide)
peptide: K([γGlu-C18 diacid])KCNTATCATQRLAHFL[Aib]HSS[Aib]NFGPILPPTEVGSNTY-NH2
modifications: disulfide 3-8; N-terminus assumed
SMILES: CC[C@H](C)[C@H](NC(=O)[C@@H]1CCCN1C(=O)CNC(=O)[C@H](Cc1ccccc1)NC(=O)[C@H](CC(N)=O)NC(=O)C(C)(C)NC(=O)[C@H](CO)NC(=O)[C@H](CO)NC(=O)[C@H](Cc1c[nH]cn1)NC(=O)C(C)(C)NC(=O)[C@H](CC(C)C)NC(=O)[C@H](Cc1ccccc1)NC(=O)[C@H](Cc1c[nH]cn1)NC(=O)[C@H](C)NC(=O)[C@H](CC(C)C)NC(=O)[C@H](CCCNC(=N)N)NC(=O)[C@H](CCC(N)=O)NC(=O)[C@@H](NC(=O)[C@H](C)NC(=O)[C@@H]1CSSC[C@H](NC(=O)[C@H](CCCCN)NC(=O)[C@@H](N)CCCCNC(=O)CC[C@H](NC(=O)CCCCCCCCCCCCCCCCC(=O)O)C(=O)O)C(=O)N[C@@H](CC(N)=O)C(=O)N[C@@H]([C@@H](C)O)C(=O)N[C@@H](C)C(=O)N[C@@H]([C@@H](C)O)C(=O)N1)[C@@H](C)O)C(=O)N[C@@H](CC(C)C)C(=O)N1CCC[C@H]1C(=O)N1CCC[C@H]1C(=O)N[C@H](C(=O)N[C@@H](CCC(=O)O)C(=O)N[C@H](C(=O)NCC(=O)N[C@@H](CO)C(=O)N[C@@H](CC(N)=O)C(=O)N[C@H](C(=O)N[C@@H](Cc1ccc(O)cc1)C(N)=O)[C@@H](C)O)C(C)C)[C@@H](C)O
EC50 (cAMP production) [1]: 0.119 nM | Ratio (EC50 hCTR / EC50 hAMYR3) [1]: 3 | EC50 (cAMP production) [2]: 0.311 nM

B3: Peptide 85 (SEQ ID NO: 85) (peptide)
peptide: K([γGlu-C18 diacid])KCNTATCATQRLANFLVHSS[Aib]NFGPILPPTNVGSNT[Aib]-NH2
modifications: disulfide 3-8; N-terminus assumed
SMILES: CC[C@H](C)[C@H](NC(=O)[C@@H]1CCCN1C(=O)CNC(=O)[C@H](Cc1ccccc1)NC(=O)[C@H](CC(N)=O)NC(=O)C(C)(C)NC(=O)[C@H](CO)NC(=O)[C@H](CO)NC(=O)[C@H](Cc1c[nH]cn1)NC(=O)[C@@H](NC(=O)[C@H](CC(C)C)NC(=O)[C@H](Cc1ccccc1)NC(=O)[C@H](CC(N)=O)NC(=O)[C@H](C)NC(=O)[C@H](CC(C)C)NC(=O)[C@H](CCCNC(=N)N)NC(=O)[C@H](CCC(N)=O)NC(=O)[C@@H](NC(=O)[C@H](C)NC(=O)[C@@H]1CSSC[C@H](NC(=O)[C@H](CCCCN)NC(=O)[C@@H](N)CCCCNC(=O)CC[C@H](NC(=O)CCCCCCCCCCCCCCCCC(=O)O)C(=O)O)C(=O)N[C@@H](CC(N)=O)C(=O)N[C@@H]([C@@H](C)O)C(=O)N[C@@H](C)C(=O)N[C@@H]([C@@H](C)O)C(=O)N1)[C@@H](C)O)C(C)C)C(=O)N[C@@H](CC(C)C)C(=O)N1CCC[C@H]1C(=O)N1CCC[C@H]1C(=O)N[C@H](C(=O)N[C@@H](CC(N)=O)C(=O)N[C@H](C(=O)NCC(=O)N[C@@H](CO)C(=O)N[C@@H](CC(N)=O)C(=O)N[C@H](C(=O)NC(C)(C)C(N)=O)[C@@H](C)O)C(C)C)[C@@H](C)O
EC50 (cAMP production) [1]: 0.806 nM | Ratio (EC50 hCTR / EC50 hAMYR3) [1]: 4 | EC50 (cAMP production) [2]: 3.1 nM

Continued, values first:

EC50 (cAMP production) [1]: 0.447 nM | Ratio (EC50 hCTR / EC50 hAMYR3) [1]: 18 | EC50 (cAMP production) [2]: 8.24 nM
Binder: K([γGlu-γGlu-C18 diacid])CNTATCATQRLANFLVHSS[Aib]NFGPILPPT[Aib]VGSNTY-NH2 (disulfide 2-7) [Peptide 89 (SEQ ID NO: 89)]

EC50 (cAMP production) [1]: 0.281 nM | Ratio (EC50 hCTR / EC50 hAMYR3) [1]: 4 | EC50 (cAMP production) [2]: 1.17 nM
B2: Peptide 88 (SEQ ID NO: 88) (peptide)
peptide: K([γGlu-C18 diacid])KCNTATCATQRLANFLVHSS[Aib]NFGPIL[Aib]PTNVGSNTY-NH2
modifications: disulfide 3-8; N-terminus assumed
SMILES: CC[C@H](C)[C@H](NC(=O)[C@@H]1CCCN1C(=O)CNC(=O)[C@H](Cc1ccccc1)NC(=O)[C@H](CC(N)=O)NC(=O)C(C)(C)NC(=O)[C@H](CO)NC(=O)[C@H](CO)NC(=O)[C@H](Cc1c[nH]cn1)NC(=O)[C@@H](NC(=O)[C@H](CC(C)C)NC(=O)[C@H](Cc1ccccc1)NC(=O)[C@H](CC(N)=O)NC(=O)[C@H](C)NC(=O)[C@H](CC(C)C)NC(=O)[C@H](CCCNC(=N)N)NC(=O)[C@H](CCC(N)=O)NC(=O)[C@@H](NC(=O)[C@H](C)NC(=O)[C@@H]1CSSC[C@H](NC(=O)[C@H](CCCCN)NC(=O)[C@@H](N)CCCCNC(=O)CC[C@H](NC(=O)CCCCCCCCCCCCCCCCC(=O)O)C(=O)O)C(=O)N[C@@H](CC(N)=O)C(=O)N[C@@H]([C@@H](C)O)C(=O)N[C@@H](C)C(=O)N[C@@H]([C@@H](C)O)C(=O)N1)[C@@H](C)O)C(C)C)C(=O)N[C@@H](CC(C)C)C(=O)NC(C)(C)C(=O)N1CCC[C@H]1C(=O)N[C@H](C(=O)N[C@@H](CC(N)=O)C(=O)N[C@H](C(=O)NCC(=O)N[C@@H](CO)C(=O)N[C@@H](CC(N)=O)C(=O)N[C@H](C(=O)N[C@@H](Cc1ccc(O)cc1)C(N)=O)[C@@H](C)O)C(C)C)[C@@H](C)O

EC50 (cAMP production) [1]: 0.071 nM | Ratio (EC50 hCTR / EC50 hAMYR3) [1]: 1 | EC50 (cAMP production) [2]: 0.074 nM
B4: Peptide 87 (SEQ ID NO: 87) (peptide)
peptide: K([γGlu-C18 diacid])KCNTATCATQRLANFL[Aib]HSS[Aib]NFGPILPPTNVGSNTP-NH2
modifications: disulfide 3-8; N-terminus assumed
SMILES: CC[C@H](C)[C@H](NC(=O)[C@@H]1CCCN1C(=O)CNC(=O)[C@H](Cc1ccccc1)NC(=O)[C@H](CC(N)=O)NC(=O)C(C)(C)NC(=O)[C@H](CO)NC(=O)[C@H](CO)NC(=O)[C@H](Cc1c[nH]cn1)NC(=O)C(C)(C)NC(=O)[C@H](CC(C)C)NC(=O)[C@H](Cc1ccccc1)NC(=O)[C@H](CC(N)=O)NC(=O)[C@H](C)NC(=O)[C@H](CC(C)C)NC(=O)[C@H](CCCNC(=N)N)NC(=O)[C@H](CCC(N)=O)NC(=O)[C@@H](NC(=O)[C@H](C)NC(=O)[C@@H]1CSSC[C@H](NC(=O)[C@H](CCCCN)NC(=O)[C@@H](N)CCCCNC(=O)CC[C@H](NC(=O)CCCCCCCCCCCCCCCCC(=O)O)C(=O)O)C(=O)N[C@@H](CC(N)=O)C(=O)N[C@@H]([C@@H](C)O)C(=O)N[C@@H](C)C(=O)N[C@@H]([C@@H](C)O)C(=O)N1)[C@@H](C)O)C(=O)N[C@@H](CC(C)C)C(=O)N1CCC[C@H]1C(=O)N1CCC[C@H]1C(=O)N[C@H](C(=O)N[C@@H](CC(N)=O)C(=O)N[C@H](C(=O)NCC(=O)N[C@@H](CO)C(=O)N[C@@H](CC(N)=O)C(=O)N[C@H](C(=O)N1CCC[C@H]1C(N)=O)[C@@H](C)O)C(C)C)[C@@H](C)O
